Among the data in US20160074509A1 are proliferation of CFSE-labeled OT-II cells transferred into the footpad one week after immunization with OVA-KFE8D nanofibers (shift in CFSE intensity) (% of transferred cells) and proliferation of adoptively transferred CFSE-labeled OT-II cells in mice immunized with OVA-Q11 or OVA in CFA (shift in CFSE intensity) (% of transferred cells) values, retold here.

The assay concerns the target OVA323-339 in the context of MHC class II (I-A^b) (mouse; chicken) (UniProt P14434). The experiment in a line: cell-based or functional assay.

In the case of “T cell receptor of OT-II transgenic CD4+ T cells (TCR)”, the proliferation of CFSE-labeled OT-II cells transferred into the footpad one week after immunization with OVA-KFE8D nanofibers (shift in CFSE intensity) (% of transferred cells) stood at 60 and the proliferation of adoptively transferred CFSE-labeled OT-II cells in mice immunized with OVA-Q11 or OVA in CFA (shift in CFSE intensity) (% of transferred cells) was 95.
